Tests used:
[1] = target: c-Met on cancer cells (MKN45 gastric cancer cells; NCI-H441 lung cancer cells) (human, UniProt P08581 25-1390); test: cell-based or functional assay
human c-Met protein [2] = target: T1, human c-Met protein (human, UniProt P08581 25-932, limits assumed); test: SPR (Biacore), antibody immobilized on CM5 chip, human c-Met protein injected at 0.39-100 nM
T1 construct: also called c-Met antigen
Description: (§1) Affinities of the 4 types of antibodies against c-Met antigen prepared in Example 7 were measured by using a Biacore (GE healthcare). About 80 to 110 RU of each antibody was immobilized on a CM5 chip, 9 different concentrations ranging from 0.39 nM to 100 nM of human c-Met protein, as an antigen, were injected at a rate of 30 ul/min to obtain kₒₙ values and koff values as shown in Table 3. Then, KD values were calculated based thereon.

human c-Met protein [3] = target: T1, human c-Met protein; test: SPR (Biacore), ratio of KD values of Table 3
Description: as §1

T1 sequence (P08581 25-932 limits assumed): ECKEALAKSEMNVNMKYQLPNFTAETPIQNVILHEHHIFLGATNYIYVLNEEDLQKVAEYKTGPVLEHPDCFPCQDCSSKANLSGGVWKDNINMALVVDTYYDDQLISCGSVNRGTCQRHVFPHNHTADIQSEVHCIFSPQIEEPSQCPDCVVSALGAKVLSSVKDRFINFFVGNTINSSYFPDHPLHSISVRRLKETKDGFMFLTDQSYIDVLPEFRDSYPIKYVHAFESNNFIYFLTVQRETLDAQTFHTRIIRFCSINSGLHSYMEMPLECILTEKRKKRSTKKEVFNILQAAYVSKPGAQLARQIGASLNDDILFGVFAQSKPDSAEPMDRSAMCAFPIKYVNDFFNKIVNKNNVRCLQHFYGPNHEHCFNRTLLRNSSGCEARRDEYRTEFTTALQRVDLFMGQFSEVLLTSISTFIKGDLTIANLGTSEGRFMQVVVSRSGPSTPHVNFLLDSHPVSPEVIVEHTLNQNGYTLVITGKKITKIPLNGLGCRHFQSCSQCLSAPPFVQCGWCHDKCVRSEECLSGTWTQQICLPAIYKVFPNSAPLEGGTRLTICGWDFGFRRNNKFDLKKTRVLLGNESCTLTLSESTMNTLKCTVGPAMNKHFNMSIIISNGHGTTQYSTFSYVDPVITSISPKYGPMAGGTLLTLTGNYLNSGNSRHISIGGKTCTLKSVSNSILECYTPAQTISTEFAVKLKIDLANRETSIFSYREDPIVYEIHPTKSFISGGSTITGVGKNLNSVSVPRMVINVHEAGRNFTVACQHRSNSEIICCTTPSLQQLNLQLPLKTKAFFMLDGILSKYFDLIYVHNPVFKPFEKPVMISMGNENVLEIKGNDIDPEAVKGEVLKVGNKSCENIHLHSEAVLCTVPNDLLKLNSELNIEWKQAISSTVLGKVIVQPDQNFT
c-Met on cancer cells (MKN45 gastric cancer cells; NCI-H441 lung cancer cells), sequence (P08581 25-1390): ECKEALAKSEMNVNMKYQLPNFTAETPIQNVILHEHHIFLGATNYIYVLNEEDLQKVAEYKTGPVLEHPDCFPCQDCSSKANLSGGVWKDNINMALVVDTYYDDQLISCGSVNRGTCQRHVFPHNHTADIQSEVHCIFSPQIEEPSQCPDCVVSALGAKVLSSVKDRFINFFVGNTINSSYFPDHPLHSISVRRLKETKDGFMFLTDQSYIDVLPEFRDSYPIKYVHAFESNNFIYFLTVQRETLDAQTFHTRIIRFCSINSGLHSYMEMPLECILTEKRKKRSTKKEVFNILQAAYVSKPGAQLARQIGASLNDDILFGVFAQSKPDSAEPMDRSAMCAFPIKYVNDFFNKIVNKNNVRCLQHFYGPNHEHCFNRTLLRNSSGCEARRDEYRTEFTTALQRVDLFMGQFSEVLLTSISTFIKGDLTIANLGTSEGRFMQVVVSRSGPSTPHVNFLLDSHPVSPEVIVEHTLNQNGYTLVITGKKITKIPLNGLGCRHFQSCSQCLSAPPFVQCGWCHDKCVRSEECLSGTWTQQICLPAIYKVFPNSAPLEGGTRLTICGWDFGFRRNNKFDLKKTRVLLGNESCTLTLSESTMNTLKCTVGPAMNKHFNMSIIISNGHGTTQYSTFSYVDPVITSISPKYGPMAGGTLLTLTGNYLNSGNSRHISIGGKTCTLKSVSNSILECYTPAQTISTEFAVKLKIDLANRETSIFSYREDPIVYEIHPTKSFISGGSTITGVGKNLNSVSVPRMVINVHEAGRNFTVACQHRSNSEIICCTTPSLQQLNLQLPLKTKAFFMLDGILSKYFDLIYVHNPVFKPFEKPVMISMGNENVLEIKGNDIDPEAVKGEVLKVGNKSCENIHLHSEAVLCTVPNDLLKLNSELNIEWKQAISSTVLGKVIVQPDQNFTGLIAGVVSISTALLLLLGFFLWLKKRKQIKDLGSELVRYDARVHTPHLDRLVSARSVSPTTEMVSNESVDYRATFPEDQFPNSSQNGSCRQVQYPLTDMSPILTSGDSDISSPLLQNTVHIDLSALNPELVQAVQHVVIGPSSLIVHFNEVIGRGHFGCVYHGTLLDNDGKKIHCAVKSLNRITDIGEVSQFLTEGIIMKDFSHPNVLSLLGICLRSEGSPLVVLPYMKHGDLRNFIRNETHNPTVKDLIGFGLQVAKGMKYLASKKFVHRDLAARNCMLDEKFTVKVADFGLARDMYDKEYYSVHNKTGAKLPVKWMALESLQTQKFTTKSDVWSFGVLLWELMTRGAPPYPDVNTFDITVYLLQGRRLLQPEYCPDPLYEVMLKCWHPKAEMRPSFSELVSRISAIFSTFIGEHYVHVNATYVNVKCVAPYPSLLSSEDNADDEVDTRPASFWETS

Row | Binder | BrdU assay on NCI-H441 cells (agonism); safety improved by, at 10 ug/ml [1] [%] | degree of degradation of c-Met (total c-Met ELISA, MKN45 cells, 5 ug/ml, 24 h), increase compared to huAbF46 [1] [%] | Kd (human c-Met protein [2]) [nM] | koff (human c-Met protein [2]) [s⁻¹] | kon (human c-Met protein [2]) [M⁻¹ s⁻¹] | fold improvement of affinity (against huAbF46) (human c-Met protein [3]) [times]
1 | huAbF46-H4-A5 (antibody, IgG1, V domains shown, IgG1 constant region with U6-HC7 hinge, human kappa light chain; also called IgG from clone L3-5) VH: EVQLVESGGGLVQPGGSLRLSCAASGFTFTDYYMSWVRQAPGKGLEWLGFIRNKANGYTTEYSASVKGRFTISRDNSKNTLYLQMNSLRAEDTAVYYCARDNWFAYWGQGTLVTVSS VL: DIQMTQSPSSLSASVGDRVTITCKSSQSLLASGNQNNYLAWHQQKPGKAPKMLIIWASTRVSGVPSRFSGSGSGTDFTLTISSLQPEDFATYYCQQSYSRPFTFGQGTKVEIKR | 21 | ~28 | 0.42 | 0.00024 | 572000 | –
2 | huAbF46-H4-A1 (antibody, V domains shown, also called IgG from clone L3-1) VH: EVQLVESGGGLVQPGGSLRLSCAASGFTFTDYYMSWVRQAPGKGLEWLGFIRNKANGYTTEYSASVKGRFTISRDNSKNTLYLQMNSLRAEDTAVYYCARDNWFAYWGQGTLVTVSS VL: DIQMTQSPSSLSASVGDRVTITCKSSQSLLASGNQNNYLAWHQQKPGKAPKMLIIWASTRVSGVPSRFSGSGSGTDFTLTISSLQPEDFATYYCQQSYSRPYTFGQGTKVEIKR | 25 | ~37 | – | – | – | 37
3 | huAbF46-H4-A2 (antibody, IgG1, V domains shown, IgG1 constant region with U6-HC7 hinge, human kappa light chain; also called IgG from clone L3-2) VH: EVQLVESGGGLVQPGGSLRLSCAASGFTFTDYYMSWVRQAPGKGLEWLGFIRNKANGYTTEYSASVKGRFTISRDNSKNTLYLQMNSLRAEDTAVYYCARDNWFAYWGQGTLVTVSS VL: DIQMTQSPSSLSASVGDRVTITCKSSQSLLASGNQNNYLAWHQQKPGKAPKMLIIWASTRVSGVPSRFSGSGSGTDFTLTISSLQPEDFATYYCGQSYSRPLTFGQGTKVEIKR | 28 | ~28 | 0.5 | 0.000253 | 502000 | 5
4 | huAbF46-H4-A3 (antibody, IgG1, V domains shown, IgG1 constant region with U6-HC7 hinge, human kappa light chain; also called IgG from clone L3-3) VH: EVQLVESGGGLVQPGGSLRLSCAASGFTFTDYYMSWVRQAPGKGLEWLGFIRNKANGYTTEYSASVKGRFTISRDNSKNTLYLQMNSLRAEDTAVYYCARDNWFAYWGQGTLVTVSS VL: DIQMTQSPSSLSASVGDRVTITCKSSQSLLASGNQNNYLAWHQQKPGKAPKMLIIWASTRVSGVPSRFSGSGSGTDFTLTISSLQPEDFATYYCAQSYSHPFSFGQGTKVEIKR | 13 | ~28 | 0.34 | 0.000143 | 419000 | –
